Source: patent US20170131280A1 (GENERAL HOSPITAL, published 2017)
Values belong to the binder of their own block, whether it stands above or below them.

Assays:
[1] = biological target: Raptor, endogenous protein of murine BM cells (mouse, UniProt Q8K4Q0 1-1335); test: co-immunoprecipitation from BM cell lysates, western blot (FIG. 1E)
Procedure: (§1) Rictor interaction required the C-terminal portion of SAKT that encompass the cytoplasmic region.
(§2) Protein Analyses. For immunoblotting, cells were lysed in RIPA buffer (Cell Signaling Technology) supplemented with HALT™ protease and phosphatase inhibitor cocktails (Thermo Scientific). Western blot analysis was carried out according to standard methods (8). Equal amounts of total protein from lysates were subjected to SDS-PAGE, transferred to PVDF membrane (Invitrogen), and membranes were probed by overnight incubation with appropriate primary antibodies. Bound antibodies were visualized with HRP-conjugated secondary antibodies and ECL detection reagent (GE Healthcare) and quantification of protein bands (Multigauge V3.0, Fujifilm). For standard immunoprecipitation experiments, proteins were extracted by incubation on ice in IP Lysis Buffer and all protein extracts were pre-cleared with Protein-A/G agarose (Santa Cruz Biotechnology) and incubated with Protein A/G agarose bound with antibodies against FLAG M2 (Sigma), Rictor (#9476, Cell Signaling Technology), and SAKT (Santa Cruz Biotechnology) or control IgG from mouse, and rabbit at 4° C. Immunoprecipitates were washed four times with lysis buffer and boiled for 10 minutes in 1× LDS sample buffer (Invitrogen). The eluted proteins were immunoblotted with the antibodies indicated above. […]

[2] = biological target: mTor, endogenous protein of murine BM cells (mouse, UniProt Q9JLN9 1-2549); test: as above
Procedure: as §1, §2

[3] = biological target: mTor, endogenous protein of 293T cells (human, UniProt P42345 1-2549); test: co-immunoprecipitation from 293T cell lysates, western blot (FIG. 1E)
Procedure: as §1, §2

[4] = biological target: Raptor, endogenous protein of 293T cells (UniProt Q8N122 1-1335); test: as above
Raptor, endogenous protein of 293T cells, sequence (Q8N122 whole entry): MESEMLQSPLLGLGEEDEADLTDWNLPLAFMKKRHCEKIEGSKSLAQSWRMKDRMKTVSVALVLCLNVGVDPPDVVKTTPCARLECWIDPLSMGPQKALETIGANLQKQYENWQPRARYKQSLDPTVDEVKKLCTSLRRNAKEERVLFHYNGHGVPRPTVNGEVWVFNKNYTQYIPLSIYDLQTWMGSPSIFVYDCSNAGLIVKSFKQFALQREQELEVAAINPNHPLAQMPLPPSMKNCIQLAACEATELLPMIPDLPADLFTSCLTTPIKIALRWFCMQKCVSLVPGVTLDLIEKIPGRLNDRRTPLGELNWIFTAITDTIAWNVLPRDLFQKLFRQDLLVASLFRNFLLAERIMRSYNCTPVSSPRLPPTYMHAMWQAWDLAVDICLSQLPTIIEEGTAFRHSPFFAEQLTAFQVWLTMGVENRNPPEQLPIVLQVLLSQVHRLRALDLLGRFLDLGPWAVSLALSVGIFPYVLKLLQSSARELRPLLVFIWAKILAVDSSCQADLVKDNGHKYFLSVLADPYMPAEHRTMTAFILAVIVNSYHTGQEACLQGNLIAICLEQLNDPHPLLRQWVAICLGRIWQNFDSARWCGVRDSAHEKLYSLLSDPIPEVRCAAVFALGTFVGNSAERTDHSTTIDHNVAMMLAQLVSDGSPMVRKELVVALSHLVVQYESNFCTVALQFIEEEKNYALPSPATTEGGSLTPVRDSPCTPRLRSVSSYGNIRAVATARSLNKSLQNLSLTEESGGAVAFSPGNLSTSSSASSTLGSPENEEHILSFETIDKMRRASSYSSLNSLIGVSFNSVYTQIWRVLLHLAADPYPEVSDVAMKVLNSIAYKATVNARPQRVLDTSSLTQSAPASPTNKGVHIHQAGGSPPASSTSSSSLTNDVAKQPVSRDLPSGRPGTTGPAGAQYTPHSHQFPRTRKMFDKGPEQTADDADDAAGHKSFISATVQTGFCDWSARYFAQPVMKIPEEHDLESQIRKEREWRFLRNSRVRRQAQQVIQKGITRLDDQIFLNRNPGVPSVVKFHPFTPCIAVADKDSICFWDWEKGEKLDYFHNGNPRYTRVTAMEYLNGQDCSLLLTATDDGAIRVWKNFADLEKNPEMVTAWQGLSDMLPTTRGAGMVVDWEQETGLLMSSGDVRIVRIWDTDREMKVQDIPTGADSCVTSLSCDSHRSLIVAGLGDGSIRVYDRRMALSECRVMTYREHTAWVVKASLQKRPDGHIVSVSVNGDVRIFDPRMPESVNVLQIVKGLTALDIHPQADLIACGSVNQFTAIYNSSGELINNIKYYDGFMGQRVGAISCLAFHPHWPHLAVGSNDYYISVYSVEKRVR
Procedure: as §1, §2

Raptor, endogenous protein of murine BM cells, sequence (Q8K4Q0 whole entry): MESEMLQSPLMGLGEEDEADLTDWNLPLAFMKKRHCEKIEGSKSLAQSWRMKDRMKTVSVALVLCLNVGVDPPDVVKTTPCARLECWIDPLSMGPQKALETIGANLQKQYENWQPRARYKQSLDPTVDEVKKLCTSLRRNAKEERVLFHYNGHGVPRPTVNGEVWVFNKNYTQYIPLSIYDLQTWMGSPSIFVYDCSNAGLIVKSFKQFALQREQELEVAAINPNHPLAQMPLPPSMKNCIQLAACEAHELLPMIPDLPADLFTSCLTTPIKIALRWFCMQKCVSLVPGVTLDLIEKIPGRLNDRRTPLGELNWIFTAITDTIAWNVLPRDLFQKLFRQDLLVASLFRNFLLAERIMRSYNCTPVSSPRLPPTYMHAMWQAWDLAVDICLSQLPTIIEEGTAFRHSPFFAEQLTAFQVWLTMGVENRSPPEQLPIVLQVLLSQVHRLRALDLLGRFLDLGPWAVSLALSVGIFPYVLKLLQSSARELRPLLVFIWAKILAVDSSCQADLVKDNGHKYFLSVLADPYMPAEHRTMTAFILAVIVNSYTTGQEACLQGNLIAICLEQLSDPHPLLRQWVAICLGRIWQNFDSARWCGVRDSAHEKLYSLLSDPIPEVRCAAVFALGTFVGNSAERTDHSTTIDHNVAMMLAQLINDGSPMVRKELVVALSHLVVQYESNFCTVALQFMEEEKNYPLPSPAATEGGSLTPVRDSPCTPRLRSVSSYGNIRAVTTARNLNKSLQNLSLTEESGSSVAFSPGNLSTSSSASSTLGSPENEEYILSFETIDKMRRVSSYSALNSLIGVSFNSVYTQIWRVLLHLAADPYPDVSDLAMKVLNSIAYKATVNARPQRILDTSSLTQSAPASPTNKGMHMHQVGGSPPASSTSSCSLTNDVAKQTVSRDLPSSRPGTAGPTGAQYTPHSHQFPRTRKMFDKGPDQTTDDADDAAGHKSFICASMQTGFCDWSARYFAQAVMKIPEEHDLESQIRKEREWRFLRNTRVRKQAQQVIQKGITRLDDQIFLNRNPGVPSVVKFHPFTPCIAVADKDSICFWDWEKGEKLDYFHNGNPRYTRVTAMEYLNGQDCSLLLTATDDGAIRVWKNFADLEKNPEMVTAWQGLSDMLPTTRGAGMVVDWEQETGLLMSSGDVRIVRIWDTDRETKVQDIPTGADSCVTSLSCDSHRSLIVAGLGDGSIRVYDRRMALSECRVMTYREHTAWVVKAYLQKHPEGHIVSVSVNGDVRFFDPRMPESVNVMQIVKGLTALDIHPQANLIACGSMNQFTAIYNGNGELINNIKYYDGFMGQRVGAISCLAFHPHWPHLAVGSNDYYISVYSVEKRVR

binding result [1]: no binding
binding result [2]: no binding
B1: Suppressor of AKT (SAKT), endogenous protein of murine bone marrow (BM) cells (receptor, mouse, UniProt Q8BT18 48-775, looked up)
chain: FPKVERRETAQEYAEKEQSQKMNTDDQENISFAPKYMLQQMSSEAPMVLSEGPSEIPLIKVFSVNKESHLPGAGLLHPTSPGVYSSSEPVVSASEQEPGPSLLERMSSEHSLSKVMLTVAVSSPASLNPDQEGPYNSLSTQPIVAAVTDVTHGSLDYLDNQLFAAKSQEAVSLGNSPSSSINTKEPEIIKADAAMGTTVVPGVDSTGDMEPDRERPSEMAADDGQSTTTKYLVTIPNNFLTTEPTAGSILGDAKVTVSVSTAGPVSSIFNEEWDDTKFESISRGRPPEPGDNAETQMRTKPPHGTYESFEGTEESPSSTAVLKVAPGHLGGEPALGTALVTALGDERSPVLTHQISFTPMSLAEDPEVSTMKLFPSAGGFRASTQGDRTQLSSETAFSTSQYESVPQQEAGNVLKDITQERKMATQAMNTTSPVVTQEHMATIEVPRGSGEPEEGMPSLSPVPAEVADAELSRRGESLATPASTTVVPLSLKLTSSMEDLMDTITGPSEEFIPVLGSPMAPPAMTVEAPTISSALPSEGRTSPSISRPNTAASYGLEQLESEEVEDDEDEEDEEDEEEEEEDEEDEEDEEDKETDSLYKDFDGDTEPPGFTLPGITSQEPDIRSGSMDLLEVATYQVPETIEWEQQNQGLVRSWMEKLKDKAGYMSGMLVPVGVGIAGALFILGALYSIKVMNRRRRNGFKRHKRKQREFNSMQDRVMLLADSSEDEF
notes: Endogenous protein immunoprecipitated from murine BM cell lysates; also called C14ORF37

binding result [3]: no binding
binding result [4]: no binding
B2: Suppressor of AKT (SAKT), endogenous protein of 293T cells (receptor, UniProt Q86TY3 28-774, looked up)
chain: FPKIERRREIAHVHAEKGQSDKMNTDDLENSSVTSKQTPQLVVSEDPMMMSAVPSATSLNKAFSINKETQPGQAGLMQTERPGVSTPTESGVPSAEEVFGSSQPERISPESGLAKAMLTIAITATPSLTVDEKEELLTSTNFQPIVEEITETTKGFLKYMDNQSFATESQEGVGLGHSPSSYVNTKEMLTTNPKTEKFEADTDHRTTSFPGAESTAGSEPGSLTPDKEKPSQMTADNTQAAATKQPLETSEYTLSVEPETDSLLGAPEVTVSVSTAVPAASALSDEWDDTKLESVSRIRTPKLGDNEETQVRTEMSQTAQVSHEGMEGGQPWTEAAQVALGLPEGETHTGTALLIAHGNERSPAFTDQSSFTPTSLMEDMKVSIVNLLQSTGDFTESTKENDALFFLETTVSVSVYESEADQLLGNTMKDIITQEMTTAVQEPDATLSMVTQEQVATLELIRDSGKTEEEKEDPSPVSDVPGVTQLSRRWEPLATTISTTVVPLSFEVTPTVEEQMDTVTGPNEEFTPVLGSPVTPPGIMVGEPSISPALPALEASSERRTVVPSITRVNTAASYGLDQLESEEGQEDEDEEDEEDEDEEEEDEEEDEEDKDADSLDEGLDGDTELPGFTLPGITSQEPGLEEGNMDLLEGATYQVPDALEWEQQNQGLVRSWMEKLKDKAGYMSGMLVPVGVGIAGALFILGALYSIKVMNRRRRNGFKRHKRKQREFNSMQDRVMLLADSSEDEF
notes: also called C14ORF37
